T1: Murine TNFR2 (mouse, UniProt P25119 23-474)
T1 construct: Expressed on transiently transfected HEK293 cells; also called mouse TNFR2; TNFR2(mu)
T1 sequence: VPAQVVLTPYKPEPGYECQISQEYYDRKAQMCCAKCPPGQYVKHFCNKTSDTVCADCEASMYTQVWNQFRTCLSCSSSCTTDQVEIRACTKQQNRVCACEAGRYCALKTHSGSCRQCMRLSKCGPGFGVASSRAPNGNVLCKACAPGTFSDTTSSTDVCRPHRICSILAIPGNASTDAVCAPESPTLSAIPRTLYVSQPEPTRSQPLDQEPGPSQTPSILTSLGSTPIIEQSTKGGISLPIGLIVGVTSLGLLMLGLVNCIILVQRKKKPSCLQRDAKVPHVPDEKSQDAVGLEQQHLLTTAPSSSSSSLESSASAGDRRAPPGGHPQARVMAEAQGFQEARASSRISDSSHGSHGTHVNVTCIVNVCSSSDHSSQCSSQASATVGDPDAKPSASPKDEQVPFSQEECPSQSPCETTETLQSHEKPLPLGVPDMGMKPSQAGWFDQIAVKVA

T2: Cynomolgus TNFR2 (Macaca fascicularis (cynomolgus monkey), UniProt P20333 26-461 (human entry))
T2 construct: Expressed on transiently transfected HEK293 cells; also called TNFR2-cyno; monkey TNFR2
T2 chain: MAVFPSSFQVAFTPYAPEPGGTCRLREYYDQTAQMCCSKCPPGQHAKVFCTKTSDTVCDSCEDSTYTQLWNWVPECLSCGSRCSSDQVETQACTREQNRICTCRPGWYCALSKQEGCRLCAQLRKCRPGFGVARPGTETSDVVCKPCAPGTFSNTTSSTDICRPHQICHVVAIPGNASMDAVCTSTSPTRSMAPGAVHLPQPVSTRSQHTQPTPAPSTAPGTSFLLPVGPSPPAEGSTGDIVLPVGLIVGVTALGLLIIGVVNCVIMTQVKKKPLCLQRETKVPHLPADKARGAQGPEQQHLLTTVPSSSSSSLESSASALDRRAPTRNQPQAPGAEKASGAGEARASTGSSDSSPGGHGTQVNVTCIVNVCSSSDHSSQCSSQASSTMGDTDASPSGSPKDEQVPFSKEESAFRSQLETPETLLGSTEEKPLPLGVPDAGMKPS

T3: Human TNFR2 (human, UniProt P20333 23-461)
T3 construct: On cells: HeLa-TNFR2, HT1080-Bcl2-TNFR2, transiently transfected HEK293; endogenous on Kym-1 cells; also called huTNFR2; TNFRSF1B
T3 sequence: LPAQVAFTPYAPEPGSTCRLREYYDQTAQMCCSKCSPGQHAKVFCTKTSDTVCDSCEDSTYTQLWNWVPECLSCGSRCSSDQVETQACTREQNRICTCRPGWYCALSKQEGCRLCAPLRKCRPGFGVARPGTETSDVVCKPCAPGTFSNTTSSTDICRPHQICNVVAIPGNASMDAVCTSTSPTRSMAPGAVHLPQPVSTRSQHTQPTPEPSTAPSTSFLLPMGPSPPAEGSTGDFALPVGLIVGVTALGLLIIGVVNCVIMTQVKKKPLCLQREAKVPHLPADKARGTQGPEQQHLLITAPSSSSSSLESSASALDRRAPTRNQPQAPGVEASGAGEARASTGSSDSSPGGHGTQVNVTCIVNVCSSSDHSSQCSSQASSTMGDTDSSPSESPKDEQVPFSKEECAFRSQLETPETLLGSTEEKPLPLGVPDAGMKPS

B1: VHH:C74-Fc-GpL (Fc fusion)
VHH: DVQLVESGGGLVQSGGSLRLSCAASGFPFSSSDMTWVRQTSGSVFEWVSDINPDGQNTRYADSVKGRFIISRDNAKSTLYLQMDSLKTDDTAVYYCAADPGSSGGSLSYWGKGTLVTVSS
notes: also called VHH-Fc-GpL variant of C74; not shown: The Fc domain, the C-terminal GpL reporter and the linkers or tags of the VHH-Fc-GpL construct; No entry gives the joined chain or says which Fc variant was used
B2: VHH:C12-Fc-GpL (Fc fusion)
VHH: DVQLVESGGGLVQPGGSLRLSCGGSGFTFSSYGMSWVRQAPGKGLEWVSGIYDDGSVTDYADSVKGRFTISRDDAKNTVYLQMNSLKSEDTALYYCATGEDGELNYWGQGTQVTVSS
notes: also called VHH-Fc-GpL format protein of C12; not shown: The Fc domain, the C-terminal GpL reporter and the linkers or tags of the VHH-Fc-GpL construct; No entry gives the joined chain or says which Fc variant was used
B3: VHH:C178-Fc-GpL (Fc fusion)
VHH: DVQLVESGGGLVHPGGSLRLSCAASGFTFSADDATWARQPPGKGLEWISTLYFDTEEKTYADSVKGRFIISRDIAKNTVYLQMNNLKPEDTGMYVCTATWAGGSLLRPASFGVWGQGTQVTVSS
notes: also called VHH-Fc-GpL format protein of C178; not shown: The Fc domain, the C-terminal GpL reporter and the linkers or tags of the VHH-Fc-GpL construct; No entry gives the joined chain or says which Fc variant was used
B4: VHH:C36-Fc-GpL (Fc fusion)
VHH: HVQLVESGGGSVQAGGSLRLSCAASGFTFSSYYMSWVRQAPGKGLEWVSAIYSDDSDNYSDSVKGRFTISKDNAKNTLYLQMNSLKPEDTAMYYCAAIRIGTDQYKFWGQGTQVTVSS
notes: also called VHH-Fc-GpL format protein of C36; not shown: The Fc domain, the C-terminal GpL reporter and the linkers or tags of the VHH-Fc-GpL construct; No entry gives the joined chain or says which Fc variant was used
B5: VHH:C118-Fc-GpL (Fc fusion)
VHH: QVQLVESGGGSVQAGGSLRLSCAASGHTYRSNCMGWFRQAPGKEREGVAAMYTGTDWKYYADSVKGRFTISQDKAKNTLYLVMNNLKPDDTGVYYCAADFGFICGYDSDDDPYDAWGQGTQVTVSS
notes: also called VHH-Fc-GpL format protein of C118; not shown: The Fc domain, the C-terminal GpL reporter and the linkers or tags of the VHH-Fc-GpL construct; No entry gives the joined chain or says which Fc variant was used
B6: VHH:C18-Fc-GpL (Fc fusion)
VHH: DVQLVESGGGSVQTGGSLTLSCAISGSTSERYCMGWFRQAPGREREGVAATSLTGRGAQFYADSVKGRFTISLDDAKNTLYLQMDSLRPDDTAVYYCAADVGFLCGYDSDNDPFYDWGQGTQVTVSS
notes: also called VHH-Fc-GpL variant of C18; not shown: The Fc domain, the C-terminal GpL reporter and the linkers or tags of the VHH-Fc-GpL construct; No entry gives the joined chain or says which Fc variant was used
B7: 3×VHH:C74-Fc-GpL (Fc fusion)
VHH: B1 VHH
notes: also called 3×VHH-Fc-GpL variant of C74; hexavalent format for C74; not shown: the listing has no entry for the 3xVHH-Fc-GpL format
B8: 3xVHH:C188-Fc-GpL (Fc fusion, not shown: a dimerising Fc or GST; small tags and cut ends)
VHH: B6 VHH with M34L, A99E
notes: also called hexavalent 3×VHH-Fc-GpL construct of C188
B9: 3×VHH:C18-Fc-GpL (Fc fusion)
VHH: B6 VHH
notes: also called 3×VHH-Fc-GpL variant of C18; hexavalent format of C18; not shown: the listing has no entry for the 3xVHH-Fc-GpL format
B10: 3xVHH:C238-Fc-GpL (Fc fusion, not shown: a dimerising Fc or GST; small tags and cut ends)
VHH: QVQLVESGGGSVQPGGSLTLSCVDSGSAYLSYCMAWFRQAPGKEREGVAAIYYGGDSYYADSVKGRFTISQDHAKNTMYLQMNSLKPEDTAVYYCAADVGFICGYDSDNDPPNDWGQGTQVTVSS
notes: also called hexavalent 3×VHH-Fc-GpL construct of C238

Substitutions are numbered along the chain they refer to.

In general, Kd refers to the equilibrium constant for the complex coming apart.

The first assay deals with T1, Murine TNFR2. Nature of the assay: equilibrium binding of VHH-Fc-GpL to cells expressing mouse TNFR2, 37 C. As to the method:
(§1) Specific binding (open circles) was obtained by subtraction of the non-specific binding values (Hek293 cells—crosses) from the binding values for transfectants expressing human TNFR2 (total binding—closed circles). Specific binding was analyzed with the “nonlinear regression to a one-site specific binding curve” function of the GraphPad Prism5 software.
(§2) The equivalent experiment was also performed using TNFR2 from different species, namely from Mus musculus (mouse), Macaca fascicularis (cynomolgus monkey), and Chlorocebus sabaeus (African green monkey) to study the ability of the VHH regions to bind to TNFR2 from different species. The ability to cross react to TNFR2 from different species can be helpful in allowing the antibodies to be studied in various models before assessment in human patients.
Consider B1, for which the binding result was “no binding”.
Same read-out and setting: as for B2, the entry is “no binding”; as for B3, “no binding”; as for B4, “no binding”.
Same read-out and setting: as for B5, the entry is “no binding”.

For another assay, the target named is T2, Cynomolgus TNFR2. Kind of assay: equilibrium binding of VHH-Fc-GpL to cells expressing cynomolgus TNFR2, 37 C. Here is the method:
as §1, §2
In the case of B1, the binding result is given as “no binding”.
Still for that read-out and setting: the entry for B2 is “no binding”; for B3 it is “no binding”.

The next assay addresses T2, Cynomolgus TNFR2. Nature of the assay: equilibrium binding of VHH-Fc-GpL to cells expressing cynomolgus TNFR2, 37 C; column head Affinity (ng/ml). As to the method: as §1, §2
B6 displayed a Kd of 0.05 µg/mL.

A further assay deals with T4, African green monkey TNFR2 (Chlorocebus sabaeus (African green …)).
T4 construct: whole, on cells
Kind of assay: equilibrium binding of VHH-Fc-GpL to cells expressing African green monkey TNFR2, 37 C; column head Affinity (ng/ml). Here is the method: as §1, §2
Molecule B1 had a Kd of 0.06 µg/mL.
The same measure, in the same setting: as for B6, the figure is 0.06 µg/mL; as for B2, 0.08 µg/mL.
Take B3: the Kd was 0.06 µg/mL.
B4 yielded a Kd of 0.08 µg/mL.
With B5, the Kd stood at 0.1 µg/mL.

Another assay addresses T3, Human TNFR2. Kind of assay: equilibrium binding of 3xVHH-Fc-GpL to HEK293 cells expressing human TNFR2 (panel head Hek-293-TNFR2-human), 37 °C.
B7 returned a dissociation constant (Kd) of 0.001 µg/mL.
In turn, B8 displayed a Kd of 0.003 µg/mL.
Same read-out and setting: as for B9, the figure is 0.001 µg/mL; as for B10, 0.006 µg/mL.

The target of the next assay is T1, Murine TNFR2. Nature of the assay: equilibrium binding of 3xVHH-Fc-GpL to HEK293 cells expressing murine TNFR2 (panel head Hek-293-TNFR2-murine), 37 °C.
Turning to B8, the Kd worked out at 0.07 µg/mL.
For B9, the affinity, expressed as Kd, was 0.18 µg/mL.
Consider B10, for which binding was characterised by a dissociation constant (Kd) of 0.1 µg/mL.

Another assay has as its target T3, Human TNFR2. Nature of the assay: binding of 3xVHH-Fc-GpL to HEK293 cells transiently transfected with TNFR2; empty-vector cells as unspecific binding.
B7 displayed an equilibrium dissociation constant (Kd) of 0.035 µg/mL.
Consider B8, for which the affinity, expressed as Kd, was 0.005 µg/mL.
Still for that read-out and setting: as for B9, the figure is 0.006 µg/mL; as for B10, 0.008 µg/mL.

The target in another assay is T3, Human TNFR2. Kind of assay: equilibrium binding of VHH-Fc-GpL to cells expressing human TNFR2, 37 °C; HEK293 cells as unspecific binding; one-site fit of specific binding.
Regarding B1, the Kd was 0.08 µg/mL.
Turning to B6, the Kd worked out at 0.23 µg/mL.
On the same count and under the same terms, the figure for B2 is 0.8 µg/mL; for B3 it is 0.9 µg/mL; for B4 it is 3.2 µg/mL.
On the same count and under the same terms, as for B5, the figure is 0.13 µg/mL.

The record behind these values is patent US20240190983A1 (JULIUS MAXIMILIANS UNIVERSIT T W RZBURG, published 2024).
